{"source": "patent US9713649", "about": "(CLEVELAND CLINIC FOUNDATION, dated 2017)", "binders": {"B1": {"name": "E′EAmc-Ahx-dEdEdEYK(Bn-NOTA)-NH2 (Compound 4) (peptide)", "peptide": "{E′E-Amc}-[Ahx][dE][dE][dE]YK(NOTA(2S-Bn(4-NHCS)))-NH2", "notes": "Tested unlabelled; also called E′EAmc-Ahx-dGlu-dGlu-dGlu-Tyr-Lys(Bn-NOTA)-NH2"}, "B2": {"name": "E′E-Ahx-EEEYK(Bn-NOTA)-NH2 (Compound 5) (peptide)", "peptide": "{E′E}-[Ahx]EEEYK(NOTA(2S-Bn(4-NHCS)))-NH2", "notes": "Tested unlabelled; also called E′E-Ahx-Glu-Glu-Glu-Tyr-Lys(Bn-NOTA)-NH2"}, "B3": {"name": "ZJ-MCC-Ahx-YYYG (Compound 2) (peptide)", "peptide": "{ZJ-MCC}-[Ahx]YYYG", "notes": "Synthetic urea-ligand peptide conjugate, unlabelled"}}, "note": "Primed or numbered codes have the meaning given here. Where no end group is shown, it is not given here. [ ]: non-standard residue; d: D form. The star is where a group is joined. MCC = 4-(N-maleimidomethyl)cyclohexane-1-carbonyl, from SMCC, O=C1C=CC(=O)N1C[C@H]1CC[C@H](C(=O)*)CC1; NOTA(2S-Bn(4-NHCS)) = O=C(O)CN1CCN(CC(=O)O)C[C@H](Cc2ccc(NC(=S)*)cc2)N(CC(=O)O)CC1; Amc = N-aminomethyl cyclohexanoic acid; ZJ = urea ligand Cys-C(O)-Glu; Ahx = NCCCCCC(=O)O; E′E = Glu-urea-Glu", "data": [{"target": "T1, Prostate specific membrane antigen (PSMA) (UniProt Q04609 1-750, limits assumed)", "T1 construct": "whole, on cells", "T1 sequence (Q04609 whole entry)": "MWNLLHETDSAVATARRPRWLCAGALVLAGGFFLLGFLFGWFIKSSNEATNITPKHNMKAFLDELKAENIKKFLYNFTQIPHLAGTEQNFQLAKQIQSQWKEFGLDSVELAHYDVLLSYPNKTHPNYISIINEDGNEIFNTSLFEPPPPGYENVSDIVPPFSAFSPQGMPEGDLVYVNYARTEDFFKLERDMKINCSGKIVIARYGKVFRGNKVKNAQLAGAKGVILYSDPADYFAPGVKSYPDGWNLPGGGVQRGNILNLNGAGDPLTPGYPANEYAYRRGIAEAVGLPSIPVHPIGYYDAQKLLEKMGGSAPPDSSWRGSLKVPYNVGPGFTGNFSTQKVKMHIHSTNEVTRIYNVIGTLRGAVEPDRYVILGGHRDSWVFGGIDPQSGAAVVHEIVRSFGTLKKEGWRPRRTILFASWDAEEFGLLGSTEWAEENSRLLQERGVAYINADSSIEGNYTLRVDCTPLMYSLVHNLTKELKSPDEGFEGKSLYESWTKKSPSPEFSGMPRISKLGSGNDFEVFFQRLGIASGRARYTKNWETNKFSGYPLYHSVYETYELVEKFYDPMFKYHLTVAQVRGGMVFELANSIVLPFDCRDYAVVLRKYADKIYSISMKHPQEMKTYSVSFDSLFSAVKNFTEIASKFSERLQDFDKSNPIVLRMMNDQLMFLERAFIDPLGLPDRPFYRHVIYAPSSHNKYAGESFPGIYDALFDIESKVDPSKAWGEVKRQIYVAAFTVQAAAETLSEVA", "assay": "competitive binding on LNCaP or PC3-PIP cells; displacement of 12 nM N-[N-[(S)-1,3-dicarboxypropyl]carbamoyl]-S-[3H]-methyl-L-cysteine, scintillation counting", "protocol": "Briefly, LNCaP or PC3-PIP cells (5×10^5) were incubated with different concentrations of ligands in the presence of 12 nM N—[N—[(S)-1,3-dicarboxypropyl]carbamoyl]-S-[^3H]-methyl-L-cysteine in a total volume of 300 µL for 1 hour at 37° C. The mixture was centrifuged at 3,000 g for 5 min at 4° C., then washed three times with 500 µL of cold PBS. Finally, 4 mL of EcoLume™ cocktail (MP Biomedicals) was added, and radioactivity was counted by scintillation counter. The concentration required to inhibit 50% of binding was determined (IC$50$) by GraphPad Prism 3.0.\nBinding affinities of new compounds to PSMA.", "units": {"IC50": "nM"}, "values": [{"binder": "B1", "IC50": 4.6}, {"binder": "{E′E-Amc}-[Ahx][dE][dE][dE]GYGGGC-NH2", "note": "[E′EAmc-Ahx-dEdEdEGYGGGC-NH2 (Compound 3)]", "IC50": 7}, {"binder": "B2", "IC50": 4.3}, {"binder": "B3", "IC50": 2.5}]}]}
